Measurements taken from the MegaScale stability set (Tsuboyama et al. 2023).

B1: r16_88_TrROS_Hall (parent)
chain: EVIELKIKFKTPEQREKLKEIAKKLNAEVVEEKDGEVIIRFKTPEQAERALKEAEKLGAEVEL

Variants of: B1
Assay: folding stability dG (cDNA display proteolysis); higher = more stable
Conditions: PBS, room temperature
For EVIELKIKFKTPEQREKLKEIAKKLNAEVVEEKDGEVIIRFKTPEQAERALKEAEKLGAEVEC [L63C], the “folding stability dG” value was 4.44 kcal/mol. For EVIELKIKFKTPEQREKLKEIAKKLNAEVVEEKDGEVIIRFKTPEQAERALKEAEKLGAEVEW [L63W], the “folding stability dG” value was 4.73 kcal/mol. In the case of EVIELKIKFKTPEQREKLKEIAKKLNAEVVEEKDGEVIIRFKTPEQAERALKEAEKLGAEVEP [L63P], the “folding stability dG” value is reported as 4.69 kcal/mol. In the case of EVIELKIKFKTPEQREKLKEIAKKLNAEVVEEKDGEVIIRFKTPEQAERALKEAEKLGAEVEN [L63N], the “folding stability dG” value is reported as 4.3 kcal/mol. With EVIELKIKFKTPEQREKLKEIAKKLNAEVVEEKDGEVIIRFKTPEQAERALKEAEKLGAEVEY [L63Y] the “folding stability dG” value was 4.35 kcal/mol. For EVIELKIKFKTPEQREKLKEIAKKLNAEVVEEKDGEVIIRFKTPEQAERALKEAEKLGAEVED [L63D], the “folding stability dG” value was 4.33 kcal/mol. In the case of EVIELKIKFKTPEQREKLKEIAKKLNAEVVEEKDGEVIIRFKTPEQAERALKEAEKLGAEVET [L63T], the “folding stability dG” value is reported as 4.24 kcal/mol. With EVIELKIKFKTPEQREKLKEIAKKLNAEVVEEKDGEVIIRFKTPEQAERALKEAEKLGAEVES [L63S] the “folding stability dG” value was 4.39 kcal/mol. With EVIELKIKFKTPEQREKLKEIAKKLNAEVVEEKDGEVIIRFKTPEQAERALKEAEKLGAEVER [L63R] the “folding stability dG” value was 4.28 kcal/mol. For EVIELKIKFKTPEQREKLKEIAKKLNAEVVEEKDGEVIIRFKTPEQAERALKEAEKLGAEVEE [L63E], the “folding stability dG” value was 4.22 kcal/mol. For EVIELKIKFKTPEQREKLKEIAKKLNAEVVEEKDGEVIIRFKTPEQAERALKEAEKLGAEVEH [L63H], the “folding stability dG” value was 4.59 kcal/mol. For EVIELKIKFKTPEQREKLKEIAKKLNAEVVEEKDGEVIIRFKTPEQAERALKEAEKLGAEVEA [L63A], the “folding stability dG” value was 4.17 kcal/mol. With EVIELKIKFKTPEQREKLKEIAKKLNAEVVEEKDGEVIIRFKTPEQAERALKEAEKLGAEVEI [L63I] the “folding stability dG” value was 4.22 kcal/mol. In the case of EVIELKIKFKTPEQREKLKEIAKKLNAEVVEEKDGEVIIRFKTPEQAERALKEAEKLGAEVEF [L63F], the “folding stability dG” value is reported as 4.07 kcal/mol. For EVIELKIKFKTPEQREKLKEIAKKLNAEVVEEKDGEVIIRFKTPEQAERALKEAEKLGAEVEM [L63M], the “folding stability dG” value was 4.23 kcal/mol. For EVIELKIKFKTPEQREKLKEIAKKLNAEVVEEKDGEVIIRFKTPEQAERALKEAEKLGAEVEG [L63G], the “folding stability dG” value was 4.38 kcal/mol. For EVIELKIKFKTPEQREKLKEIAKKLNAEVVEEKDGEVIIRFKTPEQAERALKEAEKLGAEVEV [L63V], the “folding stability dG” value was 4.25 kcal/mol. With EVIELKIKFKTPEQREKLKEIAKKLNAEVVEEKDGEVIIRFKTPEQAERALKEAEKLGAEVEK [L63K] the “folding stability dG” value was 4.56 kcal/mol. With EVIELKIKFKTPEQREKLKEIAKKLNAEVVEEKDGEVIIRFKTPEQAERALKEAEKLGAEVTL [E62T] the “folding stability dG” value was 4.4 kcal/mol. For EVIELKIKFKTPEQREKLKEIAKKLNAEVVEEKDGEVIIRFKTPEQAERALKEAEKLGAEVWL [E62W], the “folding stability dG” value was 3.87 kcal/mol. With EVIELKIKFKTPEQREKLKEIAKKLNAEVVEEKDGEVIIRFKTPEQAERALKEAEKLGAEVKL [E62K] the “folding stability dG” value was 4.17 kcal/mol. For EVIELKIKFKTPEQREKLKEIAKKLNAEVVEEKDGEVIIRFKTPEQAERALKEAEKLGAEVLL [E62L], the “folding stability dG” value was 4.21 kcal/mol. With EVIELKIKFKTPEQREKLKEIAKKLNAEVVEEKDGEVIIRFKTPEQAERALKEAEKLGAEVQL [E62Q] the “folding stability dG” value was 4.3 kcal/mol. For EVIELKIKFKTPEQREKLKEIAKKLNAEVVEEKDGEVIIRFKTPEQAERALKEAEKLGAEVIL [E62I], the “folding stability dG” value was 4.35 kcal/mol. In the case of EVIELKIKFKTPEQREKLKEIAKKLNAEVVEEKDGEVIIRFKTPEQAERALKEAEKLGAEVHL [E62H], the “folding stability dG” value is reported as 4.37 kcal/mol. For EVIELKIKFKTPEQREKLKEIAKKLNAEVVEEKDGEVIIRFKTPEQAERALKEAEKLGAEVSL [E62S], the “folding stability dG” value was 4.5 kcal/mol. In the case of EVIELKIKFKTPEQREKLKEIAKKLNAEVVEEKDGEVIIRFKTPEQAERALKEAEKLGAEVFL [E62F], the “folding stability dG” value is reported as 4.25 kcal/mol. With EVIELKIKFKTPEQREKLKEIAKKLNAEVVEEKDGEVIIRFKTPEQAERALKEAEKLGAEVRL [E62R] the “folding stability dG” value was 3.94 kcal/mol. In the case of EVIELKIKFKTPEQREKLKEIAKKLNAEVVEEKDGEVIIRFKTPEQAERALKEAEKLGAEVDL [E62D], the “folding stability dG” value is reported as 4.59 kcal/mol. With EVIELKIKFKTPEQREKLKEIAKKLNAEVVEEKDGEVIIRFKTPEQAERALKEAEKLGAEVYL [E62Y] the “folding stability dG” value was 4.12 kcal/mol. In the case of EVIELKIKFKTPEQREKLKEIAKKLNAEVVEEKDGEVIIRFKTPEQAERALKEAEKLGAEVML [E62M], the “folding stability dG” value is reported as 4.24 kcal/mol. For EVIELKIKFKTPEQREKLKEIAKKLNAEVVEEKDGEVIIRFKTPEQAERALKEAEKLGAEVCL [E62C], the “folding stability dG” value was 4.59 kcal/mol. In the case of EVIELKIKFKTPEQREKLKEIAKKLNAEVVEEKDGEVIIRFKTPEQAERALKEAEKLGAEVPL [E62P], the “folding stability dG” value is reported as 3.84 kcal/mol. With EVIELKIKFKTPEQREKLKEIAKKLNAEVVEEKDGEVIIRFKTPEQAERALKEAEKLGAEVNL [E62N] the “folding stability dG” value was 4.53 kcal/mol. In the case of EVIELKIKFKTPEQREKLKEIAKKLNAEVVEEKDGEVIIRFKTPEQAERALKEAEKLGAEVVL [E62V], the “folding stability dG” value is reported as 4.35 kcal/mol. For EVIELKIKFKTPEQREKLKEIAKKLNAEVVEEKDGEVIIRFKTPEQAERALKEAEKLGAEVGL [E62G], the “folding stability dG” value was 4.46 kcal/mol. With EVIELKIKFKTPEQREKLKEIAKKLNAEVVEEKDGEVIIRFKTPEQAERALKEAEKLGAEVAL [E62A] the “folding stability dG” value was 4.5 kcal/mol. With EVIELKIKFKTPEQREKLKEIAKKLNAEVVEEKDGEVIIRFKTPEQAERALKEAEKLGAELEL [V61L] the “folding stability dG” value was 4.28 kcal/mol. For EVIELKIKFKTPEQREKLKEIAKKLNAEVVEEKDGEVIIRFKTPEQAERALKEAEKLGAENEL [V61N], the “folding stability dG” value was 4.28 kcal/mol. In the case of EVIELKIKFKTPEQREKLKEIAKKLNAEVVEEKDGEVIIRFKTPEQAERALKEAEKLGAEYEL [V61Y], the “folding stability dG” value is reported as 3.79 kcal/mol. For EVIELKIKFKTPEQREKLKEIAKKLNAEVVEEKDGEVIIRFKTPEQAERALKEAEKLGAEKEL [V61K], the “folding stability dG” value was 3.84 kcal/mol. With EVIELKIKFKTPEQREKLKEIAKKLNAEVVEEKDGEVIIRFKTPEQAERALKEAEKLGAEHEL [V61H] the “folding stability dG” value was 4.39 kcal/mol. With EVIELKIKFKTPEQREKLKEIAKKLNAEVVEEKDGEVIIRFKTPEQAERALKEAEKLGAEWEL [V61W] the “folding stability dG” value was 3.96 kcal/mol. For EVIELKIKFKTPEQREKLKEIAKKLNAEVVEEKDGEVIIRFKTPEQAERALKEAEKLGAEQEL [V61Q], the “folding stability dG” value was 4.22 kcal/mol. For EVIELKIKFKTPEQREKLKEIAKKLNAEVVEEKDGEVIIRFKTPEQAERALKEAEKLGAEPEL [V61P], the “folding stability dG” value was 4.14 kcal/mol. With EVIELKIKFKTPEQREKLKEIAKKLNAEVVEEKDGEVIIRFKTPEQAERALKEAEKLGAETEL [V61T] the “folding stability dG” value was 4.2 kcal/mol. For EVIELKIKFKTPEQREKLKEIAKKLNAEVVEEKDGEVIIRFKTPEQAERALKEAEKLGAESEL [V61S], the “folding stability dG” value was 3.93 kcal/mol. For EVIELKIKFKTPEQREKLKEIAKKLNAEVVEEKDGEVIIRFKTPEQAERALKEAEKLGAEREL [V61R], the “folding stability dG” value was 3.46 kcal/mol. In the case of EVIELKIKFKTPEQREKLKEIAKKLNAEVVEEKDGEVIIRFKTPEQAERALKEAEKLGAEIEL [V61I], the “folding stability dG” value is reported as 4.29 kcal/mol. In the case of EVIELKIKFKTPEQREKLKEIAKKLNAEVVEEKDGEVIIRFKTPEQAERALKEAEKLGAEMEL [V61M], the “folding stability dG” value is reported as 3.99 kcal/mol.
